Source: the supplement of paper PMC9732359
± gives the uncertainty stated by the source.

Experiment: protein stability index of a GFP-peptide fusion (yeast GPS) (PSI 1-4); higher = more stable; sorted into four equal gates, so the index is relative within each strain
Conditions: doa10∆
Summary of the method: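 The protein stability index of a peptide was calculated by multiplying its read frequency in each gate by that gate's number and adding the products. The peptides were tiled 17-residue stretches of yeast proteins, fused downstream of GFP on a Cherry-expressing plasmid and carried in yeast as a pooled library. Mid-log cultures in leucine-free medium were sorted into four equal gates by GFP/Cherry ratio, and each gate's plasmids were PCR-amplified and Illumina-sequenced.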
CDVFWVQKDTAIIRLHP [POP1] showed a protein stability index of 2.29 ± 0.079. CEKWAASSWAKKIAQRE [RPL14A] showed a protein stability index of 2.35 ± 0.089. In the case of CFDSTTGRDAGFGILED [RRP40], the protein stability index is reported as 3.33 ± 0.13. In the case of CFKPMSLTSKRLISQSL [RIP1], the protein stability index is reported as 2.64 ± 0.24. For CFSINDDPVPTPPAIEH [SSN2], the protein stability index was 2.42 ± 0.25. CIIAVSCTLLERGHPKD [POP1] showed a protein stability index of 1.46 ± 0.022. For CISLGSTKLSRPFDSFG [ITC1], the protein stability index was 3.06 ± 0.067. In the case of CKNFEKTQLGSTMTEPV [GAL11], the protein stability index is reported as 2.81 ± 0.05. Work on CRVCSSHTGLVRKYDLN [RPS29B] yielded a protein stability index of 2.56 ± 0.058. In the case of CSDFVKILNLEKPLILA [NUT1], the protein stability index is reported as 2.01 ± 0.097. Sequence CSHIFTSDQKNKRTQFS [RPB9] has a protein stability index of 2.52 ± 0.058. For CVEWRLPEIAKEIYTTL [YJR042W/NUP85], the protein stability index was 1.4 ± 0.075. Sequence CVKLTVRSLLEVVQTGA [PRE6] has a protein stability index of 2.44 ± 0.3. DALRRGMLAMASLHSKE [MED4] gave a protein stability index of 1.87 ± 0.15. Work on DAPFNKVVLKALFLSKI [RPL18A] yielded a protein stability index of 1.55 ± 0.1. For DARGVIGVIAGGGRVDK [RPL2A], the protein stability index was 3.18 ± 0.093. For DASPAPSNESCSPWSLQ [SRB5], the protein stability index was 2.72 ± 0.071. In the case of DASPDSLEALIDLCHDF [YCS4], the protein stability index is reported as 2.81 ± 0.055. DAVLKIFSFHQDSIFQR [SRB8] gave a protein stability index of 3.12 ± 0.11. In the case of DDDDDEDEEEEEEVTDQ [QCR6], the protein stability index is reported as 3.02 ± 0.061. For DDEPTTPAELVGKFLGY [FAS1], the protein stability index was 3.51 ± 0.13. Work on DDFTDAIQFVKENELLF [YCS4] yielded a protein stability index of 2.1 ± 0.082. In the case of DDLQKFNGIENQSAYEW [ISW2], the protein stability index is reported as 3.2 ± 0.21. With DDNEMTRDDLLTILMRS [RRI2] the protein stability index was 2.44 ± 0.2. DDNNNNNNNNNNNNSTR [GRR1] showed a protein stability index of 2.95 ± 0.045. Sequence DDRVDKKFVSQIQKNVD [POP3] has a protein stability index of 3.22 ± 0.073. For DDYDYVMYGTAYKFEEV [RPB8], the protein stability index was 2.55 ± 0.041. With DDYSNLKREERQGLIHQ [SMC3] the protein stability index was 2.21 ± 0.2. In the case of DEDLLDTQTFSVLLQQL [YGL172W/NUP49], the protein stability index is reported as 2.93 ± 0.059. DEELVSHFVSAVSTIAS [RPP0] showed a protein stability index of 3.73 ± 0.21. With DEFIKTHEDLPKEVDGL [IRR1] the protein stability index was 3.2 ± 0.081. For DEFKDITKEVTQVNILK [YIL149C/MLP2], the protein stability index was 3.14 ± 0.082. Work on DEGGAKSLLLNTLNIDN [BRN1] yielded a protein stability index of 3.19 ± 0.077. DEIKAQRKEIKDRISSC [SMC4] gave a protein stability index of 3 ± 0.062. With DENGTNSAIANEQEEKS [RPC37] the protein stability index was 2.65 ± 0.083. Sequence DEQDDDNVNSTTGSIFE [BRN1] has a protein stability index of 2.88 ± 0.16. For DFDDFLKLGLVEYLDVN [RET1], the protein stability index was 3.01 ± 0.092. Sequence DFHFSTDRITRLFIKPG [BRN1] has a protein stability index of 2.33 ± 0.058. Sequence DFITGSYLISHKDSFYD [RPO31] has a protein stability index of 2.02 ± 0.066. With DFKEVEDFLHFIVAEYI [SRB4] the protein stability index was 2.73 ± 0.071. Work on DFKTDVDEPMTSAVELG [YJL039C/NUP192] yielded a protein stability index of 2.17 ± 0.073. In the case of DFTLPEDFAPLLAEEEE [PRP8], the protein stability index is reported as 3.42 ± 0.19. With DFTQEDELRKQELISKA [ISW2] the protein stability index was 3.11 ± 0.12. With DFYTRHHFTCEITGTSC [ITC1] the protein stability index was 1.43 ± 0.042. In the case of DGDASKPAFSFGAKPDE [YJL041W/NSP1], the protein stability index is reported as 3.32 ± 0.058. DGHYIEENSQGNILDFN [REC8] showed a protein stability index of 3.23 ± 0.11. DHLIIEPEEEKSKREEE [ARP9] gave a protein stability index of 3.15 ± 0.27. Sequence DHNALPQRCTFAFEAID [POP1] has a protein stability index of 2.36 ± 0.09. For DIAGQRDDALVVETITS [RRP42], the protein stability index was 3.1 ± 0.11. DIDLETYSFIDNDRFNV [YML103C/NUP188] showed a protein stability index of 2.47 ± 0.064. For DIEAGDDDDNNESSSNT [DIS3], the protein stability index was 3.51 ± 0.26. Work on DIFVYLTYDKDLTNNPQ [MTR3] yielded a protein stability index of 2.1 ± 0.05. Sequence DIGSDPTLPRSDRECPK [RPB9] has a protein stability index of 2.7 ± 0.069. In the case of DILLCYQKLFSQFINDH [SRB8], the protein stability index is reported as 2.37 ± 0.034. In the case of DILLNERVWNICLYSSF [AAR2], the protein stability index is reported as 1.91 ± 0.066. Work on DINVESLTQSVCDLALR [PUP2] yielded a protein stability index of 1.52 ± 0.1. With DIPLAKALDNACGAFIN [CDC53] the protein stability index was 2.63 ± 0.091. DITGDIRNEGSDAEEEE [ISW2] showed a protein stability index of 2.83 ± 0.16. Work on DITVHGEQIIVHPVNER [RRP45] yielded a protein stability index of 2.23 ± 0.078. For DKDNPVDSRNETDHKTN [SRB4], the protein stability index was 3.38 ± 0.14. DKFPYKKLELPKYIDEL [SWP82] gave a protein stability index of 2.73 ± 0.074. DKFRKACSSSGRETILS [SIR3] showed a protein stability index of 1.94 ± 0.042. For DKHLYHVLYKESKGNAF [RPL19A], the protein stability index was 3.56 ± 0.16. In the case of DKIHARARGPMQVLTRQ [RPB2], the protein stability index is reported as 3.16 ± 0.13. DKINQLSVVKYLLASLK [RPN9] gave a protein stability index of 2.02 ± 0.16. For DKKHFNNKNKRVTGAGG [RPC53], the protein stability index was 3.15 ± 0.24. DKKKGQNVTSETHSKKR [ITC1] showed a protein stability index of 3.1 ± 0.087. With DKKVTLITSEMFDAFVS [SIN4] the protein stability index was 1.56 ± 0.059. DKLSGCYAPRPSAGPHK [RPS4A] gave a protein stability index of 2.2 ± 0.065. For DKLTSIQDTLRTGSQSP [MED7], the protein stability index was 2.7 ± 0.042. In the case of DKPYLLRIVTHLAICLD [YDL116W/NUP84], the protein stability index is reported as 1.33 ± 0.078. DKQYRTAVATLLKELSK [SMC3] showed a protein stability index of 2.49 ± 0.082. Work on DKRFSGSLKLPNCPRPN [RPL1A] yielded a protein stability index of 2.77 ± 0.073. Work on DLIADTITNSSSSSDII [YML103C/NUP188] yielded a protein stability index of 2.89 ± 0.077. Work on DLIETSFTCFAQFVSNK [NUT1] yielded a protein stability index of 2.64 ± 0.093. DLKDILEKVVPLINVVV [BRR2] showed a protein stability index of 2.22 ± 0.12. DLLPNSFAKLVPCEGKD [SMC2] gave a protein stability index of 2.2 ± 0.04. DLNHVTEELQTQYATSQ [SMC2] gave a protein stability index of 3.11 ± 0.19. With DLNPLKTLNLFKQIKSA [RPO31] the protein stability index was 2 ± 0.16. Sequence DLPETGFFENIETEFLL [IRR1] has a protein stability index of 3.13 ± 0.075. Work on DLQRTQTLSEKEYQCSA [YIL149C/MLP2] yielded a protein stability index of 2.98 ± 0.1. For DLSWSKQTDTGITHFRA [PRP8], the protein stability index was 2.85 ± 0.085. DLVLGKPLADLRPLFTR [YLR335W/NUP2] gave a protein stability index of 2.97 ± 0.072. In the case of DMENMADEQKRSTDVWY [ARP7], the protein stability index is reported as 2.35 ± 0.05. For DMLKYKEDEPVVARRSN [ITC1], the protein stability index was 2.96 ± 0.1. For DNFDYFNQRDGEHEKSN [MED1], the protein stability index was 2.86 ± 0.098. Work on DNIDEKVVKAIRIYFTE [NUT1] yielded a protein stability index of 3.12 ± 0.092. With DNISSFHSAVENLVQGN [YCG1] the protein stability index was 3.26 ± 0.08. DNMSEEQWLRQFEVSDD [SNF2] gave a protein stability index of 3.46 ± 0.099. For DNSESHPFIPLLKEKPN [RRP6], the protein stability index was 1.93 ± 0.066. With DNSPSEDFMDIPKPRTA [SNF2] the protein stability index was 2.57 ± 0.16. DPELLRSYIFGGHVSQY [RPL5] showed a protein stability index of 3.16 ± 0.083. With DPESRTQSYNNQNTLKE [POP1] the protein stability index was 2.72 ± 0.069. DPRNLVNQTGSTKKDTV [YCG1] showed a protein stability index of 2.9 ± 0.097. DPSQNRLTGSLLAHKVA [RPC37] showed a protein stability index of 2 ± 0.05. Sequence DQFRDVEITFGKEFGDV [RRP45] has a protein stability index of 3.21 ± 0.1. With DQLIISSSANKLLQLFL [YML103C/NUP188] the protein stability index was 1.91 ± 0.063. DQSNVQYYLSVLNQQLP [BRR2] gave a protein stability index of 2.96 ± 0.082. For DQTFPINCNKETIENVK [ECM29], the protein stability index was 3.17 ± 0.082. DQVVVRGIDTLQKKVAS [RPB3] gave a protein stability index of 2.39 ± 0.28. Sequence DQYDAERDFYHSLREYI [RPO31] has a protein stability index of 3.33 ± 0.076. In the case of DRHIGCVYSGLIPDGRH [PRE10], the protein stability index is reported as 3.18 ± 0.098.
